Results published in doi:10.1101/2020.11.23.395327.

Tests used:
[1] = target: PII(S49E), phosphomimetic variant (Synechocystis sp. PCC 6803) (UniProt Q55247); test: BLI
[2] = target: PII(WT)-His, signaling protein PII from Synechocystis sp. PCC 6803 (Synechocystis sp. PCC 6803) (UniProt Q55247); test: BLI

Row | Kd [1] [µM] | Kd [2] [µM] | binding signal, fold lower than that of GST-PirA [2] [fold] | Substance
1 | 2.5 | 2.9 |  | GST-PirA (GST-tagged PII-interacting regulator of arginine synthesis, Ssr0692) (natural protein)
2 |  |  | 6 | tag-free PirA (natural protein)
